The labels stand for the following.
B2: BMPRII-Fc (R&D Systems) (Fc fusion)
chain: SQNQERLCAFKDPYQQDLGIGESRISHENGTILCSKGSTCYGLWEKSKGDINLVKQGCWSHIGDPQECHYEECVVTTTPPSIQNGTYRFCCCSTDLCNVNFTENFPPPDTTPLSPPHSFNRDET
B3: Recombinant human BMP10 growth factor (GF)-domain (R&D Systems) (ligand)
chain: NAKGNYCKRTPLYIDFKEIGWDSWIIAPPGYEAYECRGVCNYPLAEHLTPTKHAIIQALVHLKNSQKASKACCVPTKLEPISILYLDKGVVTYKFKYEGMAVSECGCR

In experiment [1] the target is B3. The experiment can be described thus: SPR. A general note: SPR reads the build-up and loss of mass on a sensor chip optically.
Experiment [2] addresses B3. The experiment can be described thus: SPR.
For experiment [3], the target named is B3. The experiment is described as follows: SPR; BMP10 immobilised.
Experiment [4] addresses B3. The experiment is described as follows: SPR; BMP10 immobilised.
Experiment [5] has as its target B2. The experiment can be described thus: SPR; BMPRII-Fc immobilised.
The target of experiment [6] is B2. The experiment is described as follows: SPR; BMPRII-Fc immobilised.
The target in experiment [7] is T1, BMPRII ECD G89E (human, UniProt Q13873-1 27-150, G89E).
T1 sequence: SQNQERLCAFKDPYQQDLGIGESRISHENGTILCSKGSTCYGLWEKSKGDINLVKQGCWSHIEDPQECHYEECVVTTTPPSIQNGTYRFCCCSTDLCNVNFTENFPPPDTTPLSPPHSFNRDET
The experiment can be described thus: SPR.

In experiment [8] the target is T2, BMPRII ECD E98K (human, UniProt Q13873-1 27-150, E98K).
T2 sequence: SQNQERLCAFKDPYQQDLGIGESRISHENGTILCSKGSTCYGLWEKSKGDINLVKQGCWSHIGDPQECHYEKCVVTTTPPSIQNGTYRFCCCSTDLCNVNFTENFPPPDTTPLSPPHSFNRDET
The experiment is described as follows: SPR.

Experiment [9] concerns the target T3, BMPRII ECD Q92H (human, UniProt Q13873-1 27-150, Q92H).
T3 sequence: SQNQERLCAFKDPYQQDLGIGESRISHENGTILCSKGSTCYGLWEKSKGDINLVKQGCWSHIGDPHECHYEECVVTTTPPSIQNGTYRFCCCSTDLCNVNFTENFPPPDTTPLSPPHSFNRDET
The experiment can be described thus: SPR.

The target in experiment [10] is T4, BMPRII ECD N126S (human, UniProt Q13873-1 27-150, N126S).
T4 sequence: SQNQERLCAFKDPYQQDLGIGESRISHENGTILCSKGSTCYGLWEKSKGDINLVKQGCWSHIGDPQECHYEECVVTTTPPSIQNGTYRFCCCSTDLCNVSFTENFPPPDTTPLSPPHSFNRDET
The experiment is described as follows: SPR.

For experiment [11], the target named is T5, BMPRII ECD G89W (human, UniProt Q13873-1 27-150, G89W).
T5 sequence: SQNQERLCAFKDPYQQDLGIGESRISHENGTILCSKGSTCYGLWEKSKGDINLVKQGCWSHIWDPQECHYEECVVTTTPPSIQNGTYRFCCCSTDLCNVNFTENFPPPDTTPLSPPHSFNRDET
The experiment is described as follows: SPR.

Experiment [12] concerns the target T6, BMPRII ECD S107P (human, UniProt Q13873-1 27-150, S107P).
T6 sequence: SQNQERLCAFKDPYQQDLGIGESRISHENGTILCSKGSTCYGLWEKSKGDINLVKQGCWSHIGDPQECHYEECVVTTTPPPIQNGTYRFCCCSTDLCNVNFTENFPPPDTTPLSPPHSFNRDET
The experiment can be described thus: SPR.

The target in experiment [13] is T7, BMPRII ECD G89A (human, UniProt Q13873-1 27-150, G89A).
T7 sequence: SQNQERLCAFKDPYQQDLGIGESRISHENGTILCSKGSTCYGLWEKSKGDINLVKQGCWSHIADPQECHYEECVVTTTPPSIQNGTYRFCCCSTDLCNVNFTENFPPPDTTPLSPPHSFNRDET
The experiment can be described thus: SPR.

In another experiment the target is BMPRII ECD ΔF1 (human, UniProt Q13873-1 27-150). The experiment is described as follows: SPR.
The next experiment addresses BMPRII ECD ΔF3 (human, UniProt Q13873-1 27-150). The experiment is described as follows: SPR.
Experiment [14] concerns the target B2. The experiment is described as follows: SPR; BMP10 pre-complexed with ALK1 ECD.
Experiment [15] has as its target B2. The experiment is described as follows: SPR; BMP10 pre-complexed with ALK1 ECD.
The target of experiment [16] is T1, BMPRII ECD G89E. The experiment can be described thus: SPR. This is another data set of the same source.
Experiment [17] concerns the target T2, BMPRII ECD E98K. The experiment is described as follows: SPR. This is another data set of the same source.
The target in experiment [18] is T3, BMPRII ECD Q92H. The experiment is described as follows: SPR. This is another data set of the same source.
For experiment [19], the target named is T4, BMPRII ECD N126S. The experiment can be described thus: SPR. The source holds these as a separate data set.
The target in experiment [20] is T5, BMPRII ECD G89W. The experiment is described as follows: SPR. The source holds these as a separate data set.
The target of experiment [21] is T6, BMPRII ECD S107P. The experiment can be described thus: SPR. The source holds these as a separate data set.
For experiment [22], the target named is T7, BMPRII ECD G89A. The experiment can be described thus: SPR. The source holds these as a separate data set.

B1: BMPRII extracellular domain (ECD), wild type (domain or fragment)
chain: SQNQERLCAFKDPYQQDLGIGESRISHENGTILCSKGSTCYGLWEKSKGDINLVKQGCWSHIGDPQECHYEECVVTTTPPSIQNGTYRFCCCSTDLCNVNFTENFPPPDTTPLSPPHSFNRDET
With B1, the koff in experiment [1] is 0.161 s⁻¹. Also, the Kd in experiment [2] came out at 1190 nM.
For B2, in experiment [3], the Kd came to 4.47 nM. In [4], the off-rate constant (koff) came to 0.000857 s⁻¹.
Regarding B3, the dissociation constant (Kd) with BMPRII-Fc (R&D Systems) [5] was found to be 0.338 nM; with BMPRII ECD ΔF1, 6.63 µM; in the experiment with BMPRII ECD ΔF3, 4.17 µM; with BMPRII-Fc (R&D Systems) [15] it was 1.6 nM; in the experiment with BMPRII ECD G89E [16] it was 153 µM; with BMPRII ECD E98K [17], 1070 nM. Besides, the Kd with BMPRII ECD Q92H [18] amounted to 1220 nM; in the experiment with BMPRII ECD N126S [19] it was 1320 nM; with BMPRII ECD G89W [20], 237 µM; with BMPRII ECD S107P [21], 328 nM; with BMPRII ECD G89A [22] it was 3.19 µM. In addition, the koff amounted to 0.000838 s⁻¹ with BMPRII-Fc (R&D Systems) [6]; 0.609 s⁻¹ with BMPRII ECD G89E [7]; 0.158 s⁻¹ with BMPRII ECD E98K [8]; 0.147 s⁻¹ with BMPRII ECD Q92H [9]; 0.14 s⁻¹ in the experiment with BMPRII ECD N126S [10]; 0.433 s⁻¹ with BMPRII ECD G89W [11]. Moreover, the koff in the experiment with BMPRII ECD S107P [12] amounted to 0.0423 s⁻¹; with BMPRII ECD G89A [13], 0.331 s⁻¹; with BMPRII ECD ΔF1, 0.309 s⁻¹; with BMPRII ECD ΔF3 it was 0.49 s⁻¹; in the experiment with BMPRII-Fc (R&D Systems) [14], 0.00138 s⁻¹.

One may read the koff as the first-order rate constant of dissociation. As a reminder, the Kd is the concentration at which binding is half-saturated.

(Values after PMC9064986 (2022).)
